# Results from US20160031999A1 (CSL, published 2016).
# T1: human IL-11Rα on transfected cells (human, UniProt Q14626 23-422)
# T1 sequence: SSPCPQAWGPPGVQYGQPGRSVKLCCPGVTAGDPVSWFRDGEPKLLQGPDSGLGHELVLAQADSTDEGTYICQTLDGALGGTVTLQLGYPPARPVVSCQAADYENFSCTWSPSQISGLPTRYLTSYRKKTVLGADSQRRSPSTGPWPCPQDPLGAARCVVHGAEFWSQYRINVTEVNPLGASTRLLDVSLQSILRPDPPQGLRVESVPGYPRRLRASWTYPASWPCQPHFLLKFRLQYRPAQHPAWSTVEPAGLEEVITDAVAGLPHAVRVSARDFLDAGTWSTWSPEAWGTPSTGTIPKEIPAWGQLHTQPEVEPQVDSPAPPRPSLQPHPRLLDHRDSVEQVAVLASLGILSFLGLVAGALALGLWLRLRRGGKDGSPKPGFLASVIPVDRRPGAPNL
# T2: human IL-11Rα (form used in the assay not stated) (human, UniProt Q14626 23-363, limits assumed)
# T2 construct: also called hIL-11R; hIL-11Rα
# T2 sequence: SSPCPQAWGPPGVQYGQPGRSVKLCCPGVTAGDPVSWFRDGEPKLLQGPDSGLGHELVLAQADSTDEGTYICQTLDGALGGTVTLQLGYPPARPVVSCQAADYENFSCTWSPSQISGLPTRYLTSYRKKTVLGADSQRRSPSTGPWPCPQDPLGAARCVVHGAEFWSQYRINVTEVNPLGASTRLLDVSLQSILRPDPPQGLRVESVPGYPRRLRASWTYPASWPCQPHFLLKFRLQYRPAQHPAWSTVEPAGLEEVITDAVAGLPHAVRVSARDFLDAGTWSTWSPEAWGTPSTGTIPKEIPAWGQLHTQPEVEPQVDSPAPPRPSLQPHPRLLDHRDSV
# Experiments:
# [1] = target: T1, human IL-11Rα on transfected cells; test: cell-based or functional assay
# [2] = target: T2, human IL-11Rα (form used in the assay …); test: Biacore, pH 8.5, 37°C
Fold increase in potency relative to 8E2 [1],IC50 [1],Kd [2],Binder
1.6 fold,0.52 µg/mL,0.342 nM,"hu8E2-TS-14 (antibody, V domains shown) VH: EVQLLESGGGLVQPGGSLRLSCAASGFTFSWYSMTWVRQAPGKGLEWVSSIVPSGGHTQYADSVKGRFTISRDNSKNTLYLQMNSLRAEDTAVYYCAKGPGWGSFDLWGRGTLVTVSS VL: DIQMTQSPSSLSASVGDRVTITCQASQDINNYLNWYQQKPGKAPKLLIYDASNLQTGVPSRFSGSGSGTDFTFTISSLQPEDIATYYCQQHDNQSPTFGPGTKVDIK"
1.4 fold,0.41 µg/mL,0.289 nM,"hu8E2-TS-6 (antibody, V domains shown) VH: EVQLLESGGGLVQPGGSLRLSCAASGFTFSWYSMTWVRQAPGKGLEWVSSIVPSGGHTQYADSVKGRFTISRDNSKNTLYLQMNSLRAEDTAVYYCAKGPGWGSFDLWGRGTLVTVSS VL: DIQMTQSPSSLSASVGDRVTITCQASQDINNYLNWYQQKPGKAPKLLIYDASNLQTGVPSRFSGSGSGTDFTFTISSLQPEDIATYYCEQFESQSPTFGPGTKVDIK"
2.5 fold,0.33 µg/mL,1.06 nM,"hu8E2-TS-29 (antibody, V domains shown) VH: EVQLLESGGGLVQPGGSLRLSCAASGFTFSWYSMTWVRQAPGKGLEWVSSIVPSGGHTQYADSVKGRFTISRDNSKNTLYLQMNSLRAEDTAVYYCAKGPGWGSFDLWGRGTLVTVSS VL: DIQMTQSPSSLSASVGDRVTITCQASQDINNYLNWYQQKPGKAPKLLIYDASNLQTGVPSRFSGSGSGTDFTFTISSLQPEDIATYYCQQSEEQSPTFGPGTKVDIK"
2.7 fold,0.31 µg/mL,0.23 nM,"hu8E2-TS-21 (antibody, V domains shown) VH: EVQLLESGGGLVQPGGSLRLSCAASGFTFSWYSMTWVRQAPGKGLEWVSSIVPSGGHTQYADSVKGRFTISRDNSKNTLYLQMNSLRAEDTAVYYCAKGPGWGSFDLWGRGTLVTVSS VL: DIQMTQSPSSLSASVGDRVTITCQASQDINNYLNWYQQKPGKAPKLLIYDASNLQTGVPSRFSGSGSGTDFTFTISSLQPEDIATYYCQQSESQSPTFGPGTKVDIK"
5.2 fold,0.19 µg/mL,1.5 nM,"hu8E2-TS-49 (antibody, V domains shown) VH: EVQLLESGGGLVQPGGSLRLSCAASGFTFSWYSMTWVRQAPGKGLEWVSSIVPSGGHTQYADSVKGRFTISRDNSKNTLYLQMNSLRAEDTAVYYCAKGPGWGSFDLWGRGTLVTVSS VL: DIQMTQSPSSLSASVGDRVTITCQASQDINNYLNWYQQKPGKAPKLLIYDASNLQTGVPSRFSGSGSGTDFTFTISSLQPEDIATYYCQQYESQAPEFGPGTKVDIK"
7.9 fold,0.26 µg/mL,0.529 nM,"hu8E2-TS-2 (antibody, V domains shown) VH: EVQLLESGGGLVQPGGSLRLSCAASGFTFSWYSMTWVRQAPGKGLEWVSSIVPSGGHTQYADSVKGRFTISRDNSKNTLYLQMNSLRAEDTAVYYCAKGPGWGSFDLWGRGTLVTVSS VL: DIQMTQSPSSLSASVGDRVTITCQASQDINNYLNWYQQKPGKAPKLLIYDASNLQTGVPSRFSGSGSGTDFTFTISSLQPEDIATYYCQQAEDQSPTFGPGTKVDIK"
3.6 fold,0.28 µg/mL,0.455 nM,"hu8E2-TS-51 (antibody, V domains shown) VH: EVQLLESGGGLVQPGGSLRLSCAASGFTFSWYSMTWVRQAPGKGLEWVSSIVPSGGHTQYADSVKGRFTISRDNSKNTLYLQMNSLRAEDTAVYYCAKGPGWGSFDLWGRGTLVTVSS VL: DIQMTQSPSSLSASVGDRVTITCQASQDINNYLNWYQQKPGKAPKLLIYDASNLQTGVPSRFSGSGSGTDFTFTISSLQPEDIATYYCQQYESQWPFFGPGTKVDIK"
2.4 fold,0.41 µg/mL,9.56 nM,"hu8E2-TS-32 (antibody, V domains shown) VH: EVQLLESGGGLVQPGGSLRLSCAASGFTFSWYSMTWVRQAPGKGLEWVSSIVPSGGHTQYADSVKGRFTISRDNSKNTLYLQMNSLRAEDTAVYYCAKGPGWGSFDLWGRGTLVTVSS VL: DIQMTQSPSSLSASVGDRVTITCQASQDINNYLNWYQQKPGKAPKLLIYDASNLQTGVPSRFSGSGSGTDFTFTISSLQPEDIATYYCTQWETQSPTFGPGTKVDIK"
2 fold,0.4 µg/mL,0.838 nM,"hu8E2-TS-22 (antibody, V domains shown) VH: EVQLLESGGGLVQPGGSLRLSCAASGFTFSWYSMTWVRQAPGKGLEWVSSIVPSGGHTQYADSVKGRFTISRDNSKNTLYLQMNSLRAEDTAVYYCAKGPGWGSFDLWGRGTLVTVSS VL: DIQMTQSPSSLSASVGDRVTITCQASQDINNYLNWYQQKPGKAPKLLIYDASNLQTGVPSRFSGSGSGTDFTFTISSLQPEDIATYYCQQFETQSPTFGPGTKVDIK"
6.6 fold,0.31 µg/mL,0.295 nM,"hu8E2-TS-4 (antibody, V domains shown) VH: EVQLLESGGGLVQPGGSLRLSCAASGFTFSWYSMTWVRQAPGKGLEWVSSIVPSGGHTQYADSVKGRFTISRDNSKNTLYLQMNSLRAEDTAVYYCAKGPGWGSFDLWGRGTLVTVSS VL: DIQMTQSPSSLSASVGDRVTITCQASQDINNYLNWYQQKPGKAPKLLIYDASNLQTGVPSRFSGSGSGTDFTFTISSLQPEDIATYYCQQHEFQSPTFGPGTKVDIK"
6 fold,0.23 µg/mL,0.957 nM,"hu8E2-TS-58 (antibody, V domains shown) VH: EVQLLESGGGLVQPGGSLRLSCAASGFTFSWYSMTWVRQAPGKGLEWVSSIVPSGGHTQYADSVKGRFTISRDNSKNTLYLQMNSLRAEDTAVYYCAKGPGWGSFDLWGRGTLVTVSS VL: DIQMTQSPSSLSASVGDRVTITCQASQDINNYLNWYQQKPGKAPKLLIYDASNLQTGVPSRFSGSGSGTDFTFTISSLQPEDIATYYCQQYETQQPFFGPGTKVDIK"
3.9 fold,0.25 µg/mL,0.658 nM,"hu8E2-TS-57 (antibody, V domains shown) VH: EVQLLESGGGLVQPGGSLRLSCAASGFTFSWYSMTWVRQAPGKGLEWVSSIVPSGGHTQYADSVKGRFTISRDNSKNTLYLQMNSLRAEDTAVYYCAKGPGWGSFDLWGRGTLVTVSS VL: DIQMTQSPSSLSASVGDRVTITCQASQDINNYLNWYQQKPGKAPKLLIYDASNLQTGVPSRFSGSGSGTDFTFTISSLQPEDIATYYCQQYETQMPLFGPGTKVDIK"
4.8 fold,0.21 µg/mL,0.483 nM,"hu8E2-TS-55 (antibody, V domains shown) VH: EVQLLESGGGLVQPGGSLRLSCAASGFTFSWYSMTWVRQAPGKGLEWVSSIVPSGGHTQYADSVKGRFTISRDNSKNTLYLQMNSLRAEDTAVYYCAKGPGWGSFDLWGRGTLVTVSS VL: DIQMTQSPSSLSASVGDRVTITCQASQDINNYLNWYQQKPGKAPKLLIYDASNLQTGVPSRFSGSGSGTDFTFTISSLQPEDIATYYCQQYETQTPAFGPGTKVDIK"
0.6 fold,1.3 µg/mL,0.284 nM,"hu8E2-TS-20 (antibody, V domains shown) VH: EVQLLESGGGLVQPGGSLRLSCAASGFTFSWYSMTWVRQAPGKGLEWVSSIVPSGGHTQYADSVKGRFTISRDNSKNTLYLQMNSLRAEDTAVYYCAKGPGWGSFDLWGRGTLVTVSS VL: DIQMTQSPSSLSASVGDRVTITCQASQDINNYLNWYQQKPGKAPKLLIYDASNLQTGVPSRFSGSGSGTDFTFTISSLQPEDIATYYCQQNESQSPTFGPGTKVDIK"
3.1 fold,0.68 µg/mL,2.29 nM,"hu8E2-TS-9 (antibody, V domains shown) VH: EVQLLESGGGLVQPGGSLRLSCAASGFTFSWYSMTWVRQAPGKGLEWVSSIVPSGGHTQYADSVKGRFTISRDNSKNTLYLQMNSLRAEDTAVYYCAKGPGWGSFDLWGRGTLVTVSS VL: DIQMTQSPSSLSASVGDRVTITCQASQDINNYLNWYQQKPGKAPKLLIYDASNLQTGVPSRFSGSGSGTDFTFTISSLQPEDIATYYCQQAEEQSPTFGPGTKVDIK"
3.3 fold,0.63 µg/mL,0.108 nM,"hu8E2-TS-7 (antibody, V domains shown) VH: EVQLLESGGGLVQPGGSLRLSCAASGFTFSWYSMTWVRQAPGKGLEWVSSIVPSGGHTQYADSVKGRFTISRDNSKNTLYLQMNSLRAEDTAVYYCAKGPGWGSFDLWGRGTLVTVSS VL: DIQMTQSPSSLSASVGDRVTITCQASQDINNYLNWYQQKPGKAPKLLIYDASNLQTGVPSRFSGSGSGTDFTFTISSLQPEDIATYYCQQHENQSPTFGPGTKVDIK"
2.3 fold,0.35 µg/mL,0.39 nM,"hu8E2-TS-17 (antibody, V domains shown) VH: EVQLLESGGGLVQPGGSLRLSCAASGFTFSWYSMTWVRQAPGKGLEWVSSIVPSGGHTQYADSVKGRFTISRDNSKNTLYLQMNSLRAEDTAVYYCAKGPGWGSFDLWGRGTLVTVSS VL: DIQMTQSPSSLSASVGDRVTITCQASQDINNYLNWYQQKPGKAPKLLIYDASNLQTGVPSRFSGSGSGTDFTFTISSLQPEDIATYYCSQFESQSPTFGPGTKVDIK"
